Test results: patent US8765433B2, “Alcohol dehydrogenases (ADH) useful for fermentive production of lower alkyl alcohols” (priority 2009, dated 2014)

What was measured:
[1] = substrate: CC(C)C=O; assay: isobutyraldehyde reduction kinetics (A340, initial rates); format: biochemical, Saccharomyces cerevisiae; conditions: other: 30° C., pH 7.0, NADPH specific
[2] = substrate: CC(C)C=O; assay: as above; format: biochemical, Methylocella silvestris BL2; conditions: other: 30° C., pH 7.0, NADH specific
Description: (§1) This example describes preparation of ADH-gene constructs for over-expression/purification and measurement of enzyme activities using a time-course assay. Horse-liver ADH (HLADH; A-6128) was purchased from Sigma. Achromobacter xylosoxidans SadB (SadB), Saccharomyces cerevisiae ADH6 (ScADH6) and ADH7 (ScADH7), Entamoeba histolytica ADH1 (EhADH1), Bos Taurus Aldehyde Reductase (BtARD), Beijerinckia indica subsp. Indica ATCC 9039 (BiADH), Clostridium beijerinckii ADH (CbADH), Rana perezi ADH8 (RpADH8), Rattus norvegicus ADH1 (RnADH1), Thermus sp. ATN1 ADH (TADH), Phenylobacterium zucineum HLK1 ADH (PzADH), Methylocella silvestris BL2 ADH (MsADH), Acinetobacter baumannii AYE ADH (AbADH), Geobacillus sp. WCH70 ADH (GbADH), Vanderwaltozyma polyspora DSM 70294 ADH (VpADH), Mucor circinelloides ADH (McADH), and Rhodococcus erythropolis PR4ADH (ReADH) were the candidates for which subclones were prepared for protein expression and purification.
(§2) As a routine practice, the crude extracts and purified proteins were assayed for butanol oxidation activity, in order to ensure that the recombinant proteins were active throughout the purification process. […] Alcohol oxidation activities were carried out in 50 mM sodium phosphate buffer at pH 8.8 and aldehyde reduction reactions were assayed in 190 mM potassium phosphate buffer at pH 7.0. […]
(§3) Kinetic constants of the ADH enzymes were calculated and compared to identify those candidate ADH enzymes with the most desirable properties for the conversion of isobutyraldehyde to isobutanol in the last step of the engineered pathway for isobutanol production. […] The kcat/KM is derived from the individual numbers of kcat and KM and not an experimentally determined value. […]
(§4) Seven additional candidate ADH enzymes were synthesized, expressed, and assayed according to methods such as described in Example 2. […] A comparison of KM, KI, and kcat/KM for each candidate enzyme as compared to the same parameter for SadB are given in Table 9 as a percentage of the values determined (Table 7) for SadB. […]

[3] = substrate: CC(C)C=O; assay: as above; format: biochemical, Clostridium beijerinckii; conditions: other: 30° C., pH 7.0, NADPH specific
Procedure: (§6) The assays for determining the kinetic constants were carried out using initial rates from the assays described above. […] The concentration of a given enzyme was such that it was conducive for the measurement of initial velocities over a 1-min time course. […] The kcat/KM is derived from the individual numbers of kcat and KM and not an experimentally determined value. […]

[4] = substrate: CC(C)C=O; assay: as above; format: biochemical, Thermus sp. ATN1; conditions: other: 30° C., pH 7.0, NADH specific
Procedure: The assays for determining the kinetic constants were carried out using initial rates from the assays described above. […] The concentration of a given enzyme was such that it was conducive for the measurement of initial velocities over a 1-min time course. For each enzyme, Michaelis-Menten plots were generated with a broad range of substrate concentrations. Rough estimates of KM were obtained, based on which the assays were redesigned so as to use substrate concentrations in the range 0.5 to 10 times the KM value, to be able to obtain the appropriate kinetic constants. […] The Enzyme kinetics module (Version 1.3) of SigmaPlot 11 (Systat Software, Inc.) was used to fit data to Michaelis-Menten equations and calculate the kinetic constants. The kcat/KM is derived from the individual numbers of kcat and KM and not an experimentally determined value.
All other numbers are values from either one assay or are averages from 2 assays performed with the same enzyme sample.

[5] = substrate: NC(=O)C1=CN([C@@H]2O[C@H](COP(=O)(O)OP(=O)(O)OC[C@H]3O[C@@H](n4cnc5c(N)ncnc54)[C@H](O)[C@@H]3O)[C@@H](O)[C@H]2O)C=CC1; assay: purified protein, by the assay type; conditions: other: cofactor; 30.0 °C
[6] = substrate: CC(C)CO; assay: isobutanol oxidation kinetics; format: biochemical, Beijerinckia indica; conditions: other: 30° C., pH 8.8, 7.5 mM NAD
Procedure: (§5) As a routine practice, the crude extracts and purified proteins were assayed for butanol oxidation activity, in order to ensure that the recombinant proteins were active throughout the purification process. […] Alcohol oxidation activities were carried out in 50 mM sodium phosphate buffer at pH 8.8 and aldehyde reduction reactions were assayed in 190 mM potassium phosphate buffer at pH 7.0. Depending on the nature of reaction being carried out, the enzyme and cofactor stocks were diluted in the reaction buffers at the respective pHs. Either buffer or cell extract prepared from the proprietary E. coli strain (with no ADH plasmid) was used as the negative control for assays with purified protein and cell-free extracts, respectively.
as §3, with “production. The assays for determining the kinetic constants were carried out using initial rates from the assays described above. […] The concentration of a given enzyme was such that it was conducive for the measurement of initial velocities over a 1-min time course.” for “production.”

[7] = substrate: CC(C)C=O; assay: purified protein, by the assay type; format: biochemical, Beijerinckia indica; conditions: other: 30° C., pH 7.0, 200 μM NADH
Procedure: as §6

[8] = substrate: CC(C)C=O; assay: isobutyraldehyde reduction kinetics (A340, initial rates); format: biochemical, Phenylobacterium zucineum HLK1; conditions: other: 30° C., pH 7.0, NADH specific
Description: as §1, §2, §3, §4

[9] = substrate: CC(C)C=O; assay: as above; format: biochemical, horse; conditions: other: 30° C., pH 7.0, 200 μM NADH
Procedure: as §6

[10] = substrate: CC(C)CO; assay: isobutanol oxidation kinetics; format: biochemical, horse; conditions: other: 30° C., pH 8.8, 7.5 mM NAD
Procedure: as §5
as §3, with “production. The assays for determining the kinetic constants were carried out using initial rates from the assays described above. […] The concentration of a given enzyme was such that it was conducive for the measurement of initial velocities over a 1-min time course.” for “production.”

B1: Saccharomyces cerevisiae ADH7 (ScADH7), SEQ ID NO: 23 (Saccharomyces cerevisiae S288C) (protein)
chain: MLYPEKFQGIGISNAKDWKHPKLVSFDPKPFGDHDVDVEIEACGICGSDFHIAVGNWGPVPENQILGHEIIGRVVKVGSKCHTGVKIGDRVGVGAQALACFECERCKSDNEQYCTNDHVLTMWTPYKDGYISQGGFASHVRLHEHFAIQIPENIPSPLAAPLLCGGITVFSPLLRNGCGPGKRVGIVGIGGIGHMGILLAKAMGAEVYAFSRGHSKREDSMKLGADHYIAMLEDKGWTEQYSNALDLLVVCSSSLSKVNFDSIVKIMKIGGSIVSIAAPEVNEKLVLKPLGLMGVSISSSAIGSRKEIEQLLKLVSEKNVKIWVEKLPISEEGVSHAFTRMESGDVKYRFTLVDYDKKFHK
notes: hexa-histidine (pBADHisA) (N); made in house; host or cells: E. coli (BL21-CodonPlus or a proprietary E. coli strain)
In the case of B1, the Km [1] is reported as 300 µM, the kcat [1] is reported as 36 s⁻¹ and the kcat/Km [1] is reported as 120000 M⁻¹ s⁻¹.

B2: Methylocella silvestris BL2 ADH (MsADH), SEQ ID NO: 35 (Methylocella silvestris BL2) (protein)
chain: MKALVYHGPGQKALEERPKPQIEASGDAIVKIVKTTICGTDLHILKGDVATCAPGRILGHEGVGIIDSVGAGVTAFQPGDRVLISCISSCGKCDYCRRGLYSHCTTGGWILGNEIDGTQAEYVRTPHADTSLYRIPAGADEEALVMLSDILPTGFECGVLNGKVEPGSTVAIVGAGPIGLAALLTAQFYAPGDIIMIDLDDNRLDVARRFGATHTINSGDGKAAEAVKALTGGIGVDTAIEAVGIPATFLLCEDIVAPGGVIANVGVHGVKVDLHLERLWAHNITITTRLVDTVTTPMLLKTVQSKKLDPLQLITHRFTLDHILDAYDTFSRAADTKALKVIVSA
For B2, the Km [2] was 60 µM, the kcat [2] was 33 s⁻¹ and the kcat/Km [2] was 530000 M⁻¹ s⁻¹.

B3: Clostridium beijerinckii ADH (CbADH), SEQ ID NO: 29 (Clostridium beijerinckii) (protein)
chain: MKGFAMLGINKLGWIEKERPVAGSYDAIVRPLAVSPCTSDIHTVFEGALGDRKNMILGHEAVGEVVEVGSEVKDFKPGDRVIVPCTTPDWRSLEVQAGFQQHSNGMLAGWKFSNFKDGVFGEYFHVNDADMNLAILPKDMPLENAVMITDMMTTGFHGAELADIQMGSSVVVIGIGAVGLMGIAGAKLRGAGRIIGVGSRPICVEAAKFYGATDILNYKNGHIVDQVMKLTNGKGVDRVIMAGGGSETLSQAVSMVKPGGIISNINYHGSGDALLIPRVEWGCGMAHKTIKGGLCPGGRLRAEMLRDMVVYNRVDLSKLVTHVYHGFDHIEEALLLMKDKPKDLIKAVVIL
notes: as for B1
Work on B3 yielded a Km [3] of 1500 µM, a kcat [3] of 123 s⁻¹ and a kcat/Km [3] of 85000 M⁻¹ s⁻¹.

B4: Saccharomyces cerevisiae ADH6 (ScADH6), SEQ ID NO: 22 (Saccharomyces cerevisiae S288C) (protein)
chain: MSYPEKFEGIAIQSHEDWKNPKKTKYDPKPFYDHDIDIKIEACGVCGSDIHCAAGHWGNMKMPLVVGHEIVGKVVKLGPKSNSGLKVGQRVGVGAQVFSCLECDRCKNDNEPYCTKFVTTYSQPYEDGYVSQGGYANYVRVHEHFVVPIPENIPSHLAAPLLCGGLTVYSPLVRNGCGPGKKVGIVGLGGIGSMGTLISKAMGAETYVISRSSRKREDAMKMGADHYIATLEEGDWGEKYFDTFDLIVVCASSLTDIDFNIMPKAMKVGGRIVSISIPEQHEMLSLKPYGLKAVSISYSALGSIKELNQLLKLVSEKDIKIWVETLPVGEAGVHEAFERMEKGDVRYRFTLVGYDKEFSD
notes: as for B1
Work on B4 yielded a Km [1] of 600 µM, a kcat [1] of 47 s⁻¹ and a kcat/Km [1] of 81000 M⁻¹ s⁻¹.

B5: Thermus sp. ATN1 ADH (TADH), SEQ ID NO: 33 (Thermus sp. ATN1) (protein)
chain: MRAVVFENKERVAVKEVNAPRLQHPLDALVRVHLAGICGSDLHLYHGKIPVLPGSVLGHEFVGQVEAVGEGIQDLQPGDWVVGPFHIACGTCPYCRRHQYNLCERGGVYGYGPMFGNLQGAQAEILRVPFSNVNLRKLPPNLSPERAIFAGDILSTAYGGLIQGQLRPGDSVAVIGAGPVGLMAIEVAQVLGASKILAIDRIPERLERAASLGAIPINAEQENPVRRVRSETNDEGPDLVLEAVGGAATLSLALEMVRPGGRVSAVGVDNAPSFPFPLASGLVKDLTFRIGLANVHLYIDAVLALLASGRLQPERIVSHYLPLEEAPRGYELFDRKEALKVLLVVRG
For B5, the Km [4] was 1300 µM, the kcat [4] was 15 s⁻¹ and the kcat/Km [4] was 11000 M⁻¹ s⁻¹.

B6: Beijerinckia indica subsp. Indica ATCC 9039 ADH (BiADH), SEQ ID NO: 31 (Beijerinckia indica subsp. indica ATCC 9039) (protein)
chain: MKALVYRGPGQKLVEERQKPELKEPGDAIVKVTKTTICGTDLHILKGDVATCKPGRVLGHEGVGVIESVGSGVTAFQPGDRVLISCISSCGKCSFCRRGMFSHCTTGGWILGNEIDGTQAEYVRVPHADTSLYRIPAGADEEALVMLSDILPTGFECGVLNGKVAPGSSVAIVGAGPVGLAALLTAQFYSPAEIIMIDLDDNRLGLAKQFGATRTVNSTGGNAAAEVKALTEGLGVDTAIEAVGIPATFELCQNIVAPGGTIANVGVHGSKVDLHLESLWSHNVTITTRLVDTATTPMLLKTVQSHKLDPSRLITHRFSLDQILDAYETFGQAASTQALKVIISMEA
For B6, the Km [5] was “KM (NADH) = 0.06 mM mM”, the Km [6] was “KM = 4.7 mM] mM” and the Km [7] was 200 µM. It also gave a kcat [7] of 283 s⁻¹ and a kcat/Km [7] of 1.25e+06 M⁻¹ s⁻¹.

B7: Phenylobacterium zucineum HLK1 ADH (PzADH), SEQ ID NO: 34 (Phenylobacterium zucineum HLK1) (protein)
chain: MKALVYGGPGQKSLEDRPKPELQAPGDAIVRIVKTTICGTDLHILKGDVATCAPGRILGHEGVGIVDSVGAAVTAFRPGDHVLISCISACGKCDYCRRGMYSHCTTGGWILGNEIDGTQAEYVRTPHADTSLYPVPAGADEEALVMLSDILPTGFECGVLNGKVAPGGTVAIVGAGPIGLAALLTAQFYSPAEIIMIDLDDNRLGIARQFGATQTINSGDGRAAETVKALTGGRGVDTAIEAVGVPATFELCQDLVGPGGVIANIGVHGRKVDLHLDRLWSQNIAITTRLVDTVSTPMLLKTVQSRKLDPSQLITHRFRLDEILAAYDTFARAADTQALKVIIAA
With B7 the Km [8] was 100 µM, the kcat [8] was 30 s⁻¹ and the kcat/Km [8] was 321000 M⁻¹ s⁻¹.

B8: horse liver ADH (HLADH), SEQ ID NO: 21 (Equus caballus) (protein)
chain: MSTAGKVIKCKAAVLWEEKKPFSIEEVEVAPPKAHEVRIKMVATGICRSDDHVVSGTLVTPLPVIAGHEAAGIVESIGEGVTTVRPGDKVIPLFTPQCGKCRVCKHPEGNFCLKNDLSMPRGTMQDGTSRFTCRGKPIHHFLGTSTFSQYTVVDEISVAKIDAASPLEKVCLIGCGFSTGYGSAVKVAKVTQGSTCAVFGLGGVGLSVIMGCKAAGAARIIGVDINKDKFAKAKEVGATECVNPQDYKKPIQEVLTEMSNGGVDFSFEVIGRLDTMVTALSCCQEAYGVSVIVGVPPDSQNLSMNPMLLLSGRTWKGAIFGGFKSKDSVPKLVADFMAKKFALDPLITHVLPFEKINEGFDLLRSGESIRTILTF
notes: purchased Sigma A-6128
For B8, the Km [9] was 100 µM, the kcat [9] was 8 s⁻¹ and the kcat/Km [9] was 82000 M⁻¹ s⁻¹. The Km [10] was “KM = 0.4 mM] mM”.
